Consider seven molecules from patent publication US20130157929A1, “GLUCAGON ANALOGUES” (ZEALAND PHARMA A/S, published 2013).

Starred links: 1 amine or outer side, 2 acyl side, 3 side chain; linkers in the order of their positions; H or OH if unused. Non-standard residues stand in square brackets, D forms with d. Groups on a side chain read outwards from the residue. *: point of attachment. γGlu = O=C(O)[C@H](CCC(=O)[*:2])N[*:1]; Palmitoyl = CCCCCCCCCCCCCCCC(=O)*; 3Pal = N[C@@H](Cc1cccnc1)C(=O)O; Cit = NC(=O)NCCC[C@H](N)C(=O)O; Aib = CC(C)(N)C(=O)O

Experiment [1] has as its target human glucagon-like peptide 1 receptor (GLP-1R) (human, UniProt P43220). In words: cell-based or functional assay.
The target of experiment [2] is human glucagon receptor (glucagon-R) (human, UniProt P47871). In words: cell-based or functional assay.

Consider H-H[Aib][3‑(1,2,4-triazol-1-yl)alanyl]GTFTSDYSKYLDSK([γGlu-Palmitoyl])AAHDFVEWLLSA-NH2 [Compound 25], for which, in experiment [1], the “EC50 (nM) GLP-1R, cAMP formation” value was found to be 0.09 nM. Besides, the “EC50 (nM) GluR, cAMP formation” value in experiment [2] worked out at 0.71 nM.

In the case of H-H[Aib][3‑(4-thiazolyl)alanyl]GTFTSDYSKYLDSK([γGlu-Palmitoyl])AAHDFVEWLLSA-NH2 [Compound 23], in experiment [1], the “EC50 (nM) GLP-1R, cAMP formation” value is 0.11 nM. The “EC50 (nM) GluR, cAMP formation” value in experiment [2] was found to be 0.99 nM.

Take H-H[Aib][3Pal]GTFTSDYSKYLDSK([γGlu-Palmitoyl])AAHDFVEWLLSA-NH2 [Compound 24]: the “EC50 (nM) GLP-1R, cAMP formation” value in experiment [1] was 0.14 nM. Further, in experiment [2], the “EC50 (nM) GluR, cAMP formation” value came to 1.04 nM.

B1: Compound 21 (peptide)
peptide: H-H[Aib][Cit]GTFTSDYSKYLDSK([γGlu-Palmitoyl])AAHDFVEWLLSA-NH2
SMILES: CCCCCCCCCCCCCCCC(=O)N[C@@H](CCC(=O)NCCCC[C@H](NC(=O)[C@H](CO)NC(=O)[C@H](CC(=O)O)NC(=O)[C@H](CC(C)C)NC(=O)[C@H](Cc1ccc(O)cc1)NC(=O)[C@H](CCCCN)NC(=O)[C@H](CO)NC(=O)[C@H](Cc1ccc(O)cc1)NC(=O)[C@H](CC(=O)O)NC(=O)[C@H](CO)NC(=O)[C@@H](NC(=O)[C@H](Cc1ccccc1)NC(=O)[C@@H](NC(=O)CNC(=O)[C@H](CCCNC(N)=O)NC(=O)C(C)(C)NC(=O)[C@@H](N)Cc1c[nH]cn1)[C@@H](C)O)[C@@H](C)O)C(=O)N[C@@H](C)C(=O)N[C@@H](C)C(=O)N[C@@H](Cc1c[nH]cn1)C(=O)N[C@@H](CC(=O)O)C(=O)N[C@@H](Cc1ccccc1)C(=O)N[C@H](C(=O)N[C@@H](CCC(=O)O)C(=O)N[C@@H](Cc1c[nH]c2ccccc12)C(=O)N[C@@H](CC(C)C)C(=O)N[C@@H](CC(C)C)C(=O)N[C@@H](CO)C(=O)N[C@@H](C)C(N)=O)C(C)C)C(=O)O
Turning to B1, the “EC50 (nM) GLP-1R, cAMP formation” value in experiment [1] was 1.2 nM. In addition, the “EC50 (nM) GluR, cAMP formation” value in experiment [2] was 35 nM.

Take H-H[Aib][3‑(2-thienyl)alanyl]GTFTSDYSKYLDSK([γGlu-Palmitoyl])AAHDFVEWLLSA-NH2 [Compound 26]: the “EC50 (nM) GLP-1R, cAMP formation” value in experiment [1] came out at 0.08 nM. Also, the “EC50 (nM) GluR, cAMP formation” value in experiment [2] was 1.16 nM.

B2: Compound 1 (peptide)
peptide: H-H[Aib]HGTFTSDYSKYLDSK([γGlu-Palmitoyl])AAHDFVEWLLSA-NH2
SMILES: CCCCCCCCCCCCCCCC(=O)N[C@@H](CCC(=O)NCCCC[C@H](NC(=O)[C@H](CO)NC(=O)[C@H](CC(=O)O)NC(=O)[C@H](CC(C)C)NC(=O)[C@H](Cc1ccc(O)cc1)NC(=O)[C@H](CCCCN)NC(=O)[C@H](CO)NC(=O)[C@H](Cc1ccc(O)cc1)NC(=O)[C@H](CC(=O)O)NC(=O)[C@H](CO)NC(=O)[C@@H](NC(=O)[C@H](Cc1ccccc1)NC(=O)[C@@H](NC(=O)CNC(=O)[C@H](Cc1c[nH]cn1)NC(=O)C(C)(C)NC(=O)[C@@H](N)Cc1c[nH]cn1)[C@@H](C)O)[C@@H](C)O)C(=O)N[C@@H](C)C(=O)N[C@@H](C)C(=O)N[C@@H](Cc1c[nH]cn1)C(=O)N[C@@H](CC(=O)O)C(=O)N[C@@H](Cc1ccccc1)C(=O)N[C@H](C(=O)N[C@@H](CCC(=O)O)C(=O)N[C@@H](Cc1c[nH]c2ccccc12)C(=O)N[C@@H](CC(C)C)C(=O)N[C@@H](CC(C)C)C(=O)N[C@@H](CO)C(=O)N[C@@H](C)C(N)=O)C(C)C)C(=O)O
In the case of B2, in experiment [1], the “EC50 (nM) GLP-1R, cAMP formation” value is 0.21 nM. Besides, in experiment [2], the “EC50 (nM) GluR, cAMP formation” value stood at 0.26 nM.

In the case of H-H[Aib][3‑(2-furyl)alanyl]GTFTSDYSKYLDSK([γGlu-Palmitoyl])AAHDFVEWLLSA-NH2 [Compound 22], in experiment [1], the “EC50 (nM) GLP-1R, cAMP formation” value is 0.06 nM. The “EC50 (nM) GluR, cAMP formation” value in experiment [2] is 3.8 nM.
